Biological target: T1, TRAIL R1-Fc fusion protein (UniProt O00220 24-239, limits assumed)
T1 construct: The construct is not described beyond its name; not shown: Fc portion
Assay: immunoprecipitation with receptor-Fc from lysates of HA-TRAIL-s transfected 293T cells, Western blot

T1 sequence (O00220 24-239 limits assumed): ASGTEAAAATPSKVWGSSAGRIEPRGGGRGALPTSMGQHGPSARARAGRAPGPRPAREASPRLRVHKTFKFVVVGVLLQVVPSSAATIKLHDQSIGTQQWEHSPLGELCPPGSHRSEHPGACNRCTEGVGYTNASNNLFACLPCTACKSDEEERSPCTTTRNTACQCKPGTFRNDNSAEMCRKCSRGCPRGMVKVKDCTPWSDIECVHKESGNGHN

B1: HA-tagged TRAIL-s (ligand)
chain: MAMMEVQGGPSLGQTCVLIVIFTVLLQSLCVAVTYVYFTNELKQMQDKYSKSGIACFLKEDDSYWDPNDEESMNSPCWQVKWQLRQLVRKTPRMKRLWAAK
notes: also called HA-TRAIL-s; not shown: HA tag of the HA-pcDNA3 vector
binding result: no binding
